According to US20260000764A1 (CITY OF HOPE, published 2026):

Legend:
[1] = biological target: T1, Biotinylated recombinant human IL-13Rα2 ectodomain with C-terminal biotin acceptor peptide and hexahistidine … (human, UniProt Q14627 27-343, biotin on the biotin acceptor peptide (coexpressed with BirA ligase)); assay: SPR; ratio of the affinities for IL13Rα2 and IL13Rα1 (reference: IL13Rα1)
T1 construct: extracellular domain; also called recombinant IL13Rα2; biotinylated IL13Rα2
T1 sequence: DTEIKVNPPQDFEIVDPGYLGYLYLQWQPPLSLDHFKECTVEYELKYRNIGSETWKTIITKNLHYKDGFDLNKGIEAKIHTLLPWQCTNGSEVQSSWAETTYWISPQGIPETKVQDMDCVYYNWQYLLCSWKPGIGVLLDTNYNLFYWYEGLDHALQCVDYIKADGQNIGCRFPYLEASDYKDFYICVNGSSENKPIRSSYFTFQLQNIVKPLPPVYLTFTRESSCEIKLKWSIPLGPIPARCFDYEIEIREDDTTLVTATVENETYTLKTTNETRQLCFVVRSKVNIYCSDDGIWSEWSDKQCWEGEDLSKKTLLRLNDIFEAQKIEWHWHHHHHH
Description: (§1) SPR experiments were conducted on a Biacore T100 instrument using a Biacore SA sensor chip (GE Healthcare). Biotinylated IL-13Rα1/IL-13Rα2 was captured at a low density (50-100 response units (RU)) and kinetics measurements were conducted at 30 μL/min. An unrelated biotinylated protein was immobilized as a reference surface for the SA sensor chip with matching RU to the experimental surface. All measurements were made using 3-fold serial dilutions of IL-13 agonists in the running buffer (1×HBS-P, 0.1% BSA). The IL-13Rα1/IL-13Rα2 bound to the chip surface was regenerated with 7 mM glycine (pH 3.0) and 250 mM NaCl. Kinetic parameters were determined using 120 s to 190 s of IL-13 agonist association time and 20 s to 1200 s dissociation time. All data fitting was performed using the Biacore T100 evaluation software version 2.0 with a 1:1 Langmuir binding model.

[2] = biological target: T1, Biotinylated recombinant human IL-13Rα2 …; assay: SPR, IL-13Rα2 immobilized on the chip, IL-13 C4 flowed; panel titled IL-13C4/IL-13Rα2
Source text: (§2) FIG. 2A-2F: IL-13Rα1 and IL-13Rα2 binding affinities of the IL-13 variant. (A-C) Surface plasmon resonance measurements of IL-13, IL-13 D7 and IL-13 C4 for IL-13Rα1. IL-13Rα1 was immobilized on the surface of the chip and the indicated doses of IL-13 or the two IL-13 mutants were flowed. (D-F) Surface plasmon resonance measurements of IL-13,IL-13 D7 and IL-13 C4 for IL-13Rα2. IL-13Rα2 was immobilized on the surface of the chip and the indicated doses of IL-13 or the two IL-13 mutants were flowed.
as §1

[3] = biological target: T2, Biotinylated recombinant human IL-13Rα1 ectodomain with C-terminal biotin acceptor peptide and hexahistidine … (human, UniProt P78552 22-343, biotin on the biotin acceptor peptide (coexpressed with BirA ligase)); assay: SPR, IL-13Rα1 immobilized on the chip, IL-13 C4 flowed; panel titled IL-13C4/IL-13Rα1; Kon and Koff cells empty
T2 construct: extracellular domain; also called recombinant IL13Rα1; biotinylated IL13Rα1
T2 sequence: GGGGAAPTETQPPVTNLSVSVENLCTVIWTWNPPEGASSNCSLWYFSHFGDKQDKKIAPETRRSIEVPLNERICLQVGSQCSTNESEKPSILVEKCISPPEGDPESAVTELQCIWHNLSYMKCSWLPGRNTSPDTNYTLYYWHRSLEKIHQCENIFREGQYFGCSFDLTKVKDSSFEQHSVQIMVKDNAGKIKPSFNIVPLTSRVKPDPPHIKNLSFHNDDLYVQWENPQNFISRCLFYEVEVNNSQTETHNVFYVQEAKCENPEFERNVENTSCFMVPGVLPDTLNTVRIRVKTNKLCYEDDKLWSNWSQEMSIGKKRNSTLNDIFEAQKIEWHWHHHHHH
Source text: as §2, §1

[4] = biological target: T1, Biotinylated recombinant human IL-13Rα2 …; assay: SPR (Biacore T100), biotinylated IL-13Rα2 captured on SA chip, IL-13 C4 flowed, 1:1 Langmuir fit
Source text: as §2, §1

[5] = biological target: T2, Biotinylated recombinant human IL-13Rα1 …; assay: SPR (Biacore T100), biotinylated IL-13Rα1 captured on SA chip, IL-13 C4 flowed; Ka and Kd cells are empty
Description: as §1

[6] = biological target: T1, Biotinylated recombinant human IL-13Rα2 …; assay: SPR, Biacore T100, biotinylated receptor captured on SA chip, cytokine flowed, 1:1 Langmuir fit
Description: as §1

[7] = biological target: T2, Biotinylated recombinant human IL-13Rα1 …; assay: SPR; ratio column of the drawn table, IL13Rα1
Source text: as §2, §1

[8] = biological target: T1, Biotinylated recombinant human IL-13Rα2 …; assay: SPR (Biacore T100), biotinylated IL-13Rα2 captured on SA chip, IL-13 D7 flowed, 1:1 Langmuir fit
Description: as §1

[9] = biological target: T1, Biotinylated recombinant human IL-13Rα2 …; assay: SPR, IL-13Rα2 immobilized on the chip, IL-13 D7 flowed; panel titled IL-13D7/IL-13Rα2
Source text: as §2, §1

[10] = biological target: T2, Biotinylated recombinant human IL-13Rα1 …; assay: SPR, IL-13Rα1 immobilized on the chip, IL-13 D7 flowed; panel titled IL-13D7/IL-13Rα1; Kon and Koff cells empty
Source text: as §2, §1

[11] = biological target: T2, Biotinylated recombinant human IL-13Rα1 …; assay: SPR (Biacore T100), biotinylated IL-13Rα1 captured on SA chip, IL-13 D7 flowed; Ka and Kd cells are empty
Description: as §1

B1: IL13 C4 variant, soluble recombinant protein with C-terminal hexahistidine tag (ligand)
chain: GPVPPSTAVRELIEELVNITQNQKAPLCNGSMVWSINLTAGMYCAALESLINVSGCSAIEKTQRMLSGFCPHKVSAGQFSSLHVRDTRIEVAQFVKDLLNHLKELFTEGQFNHHHHHH
notes: also called C4 mutein
[1]
  fold stronger affinity for IL13Rα2 relative to IL13Rα1: 92000 fold
[2]
  koff: 0.000764 s⁻¹
  kon: 1.94e+06 M⁻¹ s⁻¹
[3]
  Kd: 36 µM
[4]
  koff: 0.000764 s⁻¹
  kon: 1.94e+06 M⁻¹ s⁻¹
[5]
  Kd: 36 µM
[6]
  Kd: 0.393 nM
[7]
  KDwt/KD mut: 8200

B2: IL13 D7 variant, soluble recombinant protein with C-terminal hexahistidine tag (ligand)
chain: GPVPPSTAARELIEELFNITQNQKAPLCNGSMVWSINLTAGMYCAALESLINVSGCSAIEKTKRMLSGFCPHKVSAGQFPSLHVKKTRIEVAQFVKDLLIHLRKLFKEGQFNHHHHHH
notes: also called D7 mutein
[1]
  fold stronger affinity for IL13Rα2 relative to IL13Rα1: 1.4e+06 fold
[8]
  koff: 5.37e-05 s⁻¹
  kon: 1.77e+07 M⁻¹ s⁻¹
[9]
  koff: 5.37e-05 s⁻¹
  kon: 1.77e+07 M⁻¹ s⁻¹
[6]
  Kd: 0.003 nM
[7]
  KDwt/KD mut: 940
[10]
  Kd: 4.1 µM
[11]
  Kd: 4.1 µM
